Reference: patent publication US20250257130A1 (NONA BIOSCIENCES SUZHOU, published 2025)

Assays:
[1] = biological target: T1, human ROR1 on cells (HEK293T-hROR1, PANC-1, A549) (human, UniProt Q01973 30-937); test: flow cytometry, PANC-1 cells
T1 construct: whole, on cells; one molecule for the three cell lines; also called huROR1; cell surface ROR1
Procedure: (§1) In brief, anti-ROR1 antibodies were serially diluted in staining buffer (PBS containing 2% FBS). Antibody solution was incubated with 1×10⁵ cells at 4° C. for 1 hour. […] After 1-hour incubation at 4° C., cells were washed twice with staining buffer and subjected to flow cytometry. PR000374 (Bench marker 1) and non-relevant IgG isotype control (Crownbio) were used as positive and negative controls, respectively.

[2] = biological target: T2, cynomolgus ROR1 on CHO-K1-cynoROR1 cells (cynomolgus monkey, UniProt A0A2K5WTX7 30-937); test: flow cytometry, CHO-K1-cynoROR1 cells
T2 construct: whole, on cells
Procedure: (§2) Binding of recombinant anti-ROR1 antibodies to human or cynomolgus ROR1-overexpressing cells was tested by flow cytometry. In this example, ROR1-expressing cell lines are HEK293T cell lines that had been transfected to express human ROR1 on the surface (HEK293T-hu ROR1, KYINNO BIOTECHNOLOGY CO., LTD, Catalog #KC-1018), CHO-K1 cell lines that had been transfected to express cynomolgus ROR1 (CHOK1-cyno ROR1), PANC-1 (ATCC, catalog: CRL-1469) or A549 cell lines (Shanghai Institute of Biochemistry and Cell Biology, Chinese Academy of Sciences).
as §1

[3] = biological target: T1, human ROR1 on cells (HEK293T-hROR1, …); test: flow cytometry on PANC-1 cells, MFI (FITC-A Median)
Procedure: as §2, §1

[4] = biological target: T1, human ROR1 on cells (HEK293T-hROR1, …); test: flow cytometry, PANC-1 cells; remark: listed apart in the source
Procedure: as §1
Binding activity of the variants to PANC-1 cells were tested using the same method described in example 5.1. The results were shown in FIGS. 7-8 and Table 11 and Table 12.

[5] = biological target: T3, hu-ROR2-ECD-his (Acrobiosystems RO2-H52E5) (human, UniProt Q01974 34-403); test: BLI, antibody on AHC sensor, ROR2-His in solution
T3 construct: extracellular domain; bought protein; also called Human ROR2 his-tagged protein; Human ROR2, His Tag
Procedure: In the example, binding kinetics of anti-ROR1 antibodies to soluble ROR2 protein were analyzed by using Bio-Layer Interferometry (BLI) analysis on Fortebio Octet Red384 instrument (Fortebio). […] The captured biosensors were then dipped in wells containing 2-fold serial dilutions of antigen proteins to detect association signals, followed by dissociation steps in wells containing 1× kinetic buffer. Human ROR2 his-tagged protein (Acrobiosystems, #RO2-H52E5) was diluted from 600 nM to 37.5 nM; the association phase was 180 seconds, and the dissociation phase was 180 seconds. The sensorgrams were recorded and the reference signals were subtracted before curve fitting using ForteBio Data Analysis 11.0 software. Association rates (kₒₙ) and dissociation rates (kdis) were calculated using a simple one-to-one Langmuir binding model. The equilibrium dissociation constant (KD) was calculated as the ratio of kdis/kₒₙ.

[6] = biological target: T4, Human ROR1-ECD-his (Acro Biosystems RO1-H522y) (human, UniProt Q01973 30-406); test: BLI, antibody on AHC sensor, ROR1-His 5-80 nM in solution
T4 construct: extracellular domain; bought protein; also called hROR1-ECD-his; hu-ROR1-ECD-his
Procedure: The captured biosensors were then dipped in wells containing 2-fold serial dilutions of antigen proteins to detect association signals, followed by dissociation steps in wells containing 1× kinetic buffer. Human ROR1 hits-tagged protein (Acrobiosystems, #RO1-H522y) was diluted from 80 nM to 5 nM; the association phase was 180 seconds, and the dissociation phase was 600 seconds. The sensorgrams were recorded and the reference signals were subtracted before curve fitting using ForteBio Data Analysis 11.0 software. Association rates (kₒₙ) and dissociation rates (kdis) were calculated using a simple one-to-one Langmuir binding model. The equilibrium dissociation constant (KD) was calculated as the ratio of kdis/kₒₙ.

[7] = biological target: T4, Human ROR1-ECD-his (Acro Biosystems …); test: BLI in-tandem, row = 1st Ab; competitor (2nd Ab): PR000374
Text: (§3) To determine if anti-ROR1 antibodies bind to human ROR1 on different or approximate binding epitopes, the ForteBio Octet® RED96e platform was used to perform epitope competition experiments on the anti-ROR1 antibodies. Human ROR1 protein (Acrobiosystems, #RO1-H522y) was biotinylated and then captured onto SA biosensors (ForteBio, #18-5020) to reach loading level of 0.3-0.4 nm. The in-tandem competition assay format was applied and it contains two association steps. Firstly, the antigen-loaded biosensors bind to each antibody (a.k.a, First antibody, 1st Ab) with a saturating concentration of 200 nM for 180 seconds to reach equilibrium and then secondly bind to the competing antibodies (a.k.a, Second antibody, 2nd Ab) of 200 nM for 180 seconds. The second binding signals were recorded as the 100% signal of each antibody when the first antibodies were replaced by kinetics buffer. All the binding data were analyzed using ForteBio Data Analysis 11.0 software. The inhibition rate is calculated by the following formula: […]

[8] = biological target: T4, Human ROR1-ECD-his (Acro Biosystems …); test: BLI in-tandem, row = 1st Ab; competitor (2nd Ab): PR005338
Text: as §3

[9] = biological target: T4, Human ROR1-ECD-his (Acro Biosystems …); test: BLI in-tandem, row = 1st Ab; competitor (2nd Ab): PR005340
Text: as §3

[10] = biological target: T4, Human ROR1-ECD-his (Acro Biosystems …); test: BLI in-tandem, row = 1st Ab; competitor (2nd Ab): PR007417
Text: as §3

[11] = biological target: T4, Human ROR1-ECD-his (Acro Biosystems …); test: BLI in-tandem, row = 1st Ab; competitor (2nd Ab): PR007424
Text: as §3

[12] = biological target: T1, human ROR1 on cells (HEK293T-hROR1, …); test: flow cytometry on PANC-1 cells, MFI (Median-APC) [middle panel, letter not given]
[13] = biological target: T1, human ROR1 on cells (HEK293T-hROR1, …); test: flow cytometry on PANC-1 cells, MFI (Median-APC) [bottom panel, letter not given]
[14] = biological target: T1, human ROR1 on cells (HEK293T-hROR1, …); test: flow cytometry, A549 cells
Procedure: as §1

[15] = biological target: T4, Human ROR1-ECD-his (Acro Biosystems …); test: ELISA, coated hu-ROR1-ECD-his
Procedure: (§4) Binding of recombinant anti-ROR1 antibodies to hu-ROR1-ECD-his was tested by ELISA. In brief, 1 μg/mL hu-ROR1-ECD-his was added to the 96-well plate, 100 μL each well, incubated at 4° C. overnight, washing the plates with 1×PBST 3 times, 300 ul/well, blocking the plates with 2% BSA in 1×PBST, 200 ul/well at 37° C. for 1 hour, anti-ROR1 antibodies were serially diluted in staining buffer (PBS containing 2% BSA). Antibody solution was added to the plate and incubates at 37° C. for 1 hour, washing the plates with 1×PBST 3 times, 300 ul/well, adding secondary antibody 100 ul/well and incubate at 37° C. for 1 hour, washing the plates with 1×PBST 3 times, 300 ul/well and then add 100 ul/well TMB for about 5 min, stop the reaction by adding 100 ul/well 2M H₂SO₄, read the plates with Molecular device spectra max plus384 at 450 nm and 570 nm.

[16] = biological target: T1, human ROR1 on cells (HEK293T-hROR1, …); test: flow cytometry, HEK293T-hROR1 cells
Procedure: as §1

[17] = biological target: T2, cynomolgus ROR1 on CHO-K1-cynoROR1 cells; test: flow cytometry, CHO-K1-cynoROR1 cells; remark: listed apart in the source
Procedure: as §1

[18] = biological target: T4, Human ROR1-ECD-his (Acro Biosystems …); test: BLI, ROR1-His on HIS1K sensor, antibody in solution
Procedure: In the example, binding kinetics of anti-ROR1 antibodies to soluble ROR1 protein were analyzed by using Bio-Layer Interferometry (BLI) analysis on Fortebio Octet Red384 instrument (Fortebio).
In BLI analysis, recombinant anti-ROR1 antibodies was serially diluted with 10× kinetics buffer (Fortebio). Human ROR1-His proteins were diluted to 20 nM. Then the diluted antibodies, ROR1 proteins and regeneration buffer (10 mM glycine HCl pH 1.5) were added to 96-well plates (Greiner). Rate constants for association and dissociation were measured using HIS1K sensor (Fortebio). The sensor surface was regenerated after each binding experiment with regeneration buffer. The traces were processed using Octet Data Analysis Software (version 11.0, Pall ForteBio, CA, USA).

[19] = biological target: T4, Human ROR1-ECD-his (Acro Biosystems …); test: ELISA, plate coated with hu-ROR1-his at 1 µg/mL
Procedure: as §4

[20] = biological target: T3, hu-ROR2-ECD-his (Acrobiosystems …); test: ELISA, plate coated with hu-ROR2-his at 1 µg/mL
Procedure: as §4, with “1” for “Binding of recombinant anti-ROR1 antibodies to hu-ROR1-ECD-his was tested by ELISA. In brief, 1”, “hu-ROR2-ECD-his (Acrobiocystems, RO2-H52E5)” for “hu-ROR1-ECD-his”

[21] = biological target: T1, human ROR1 on cells (HEK293T-hROR1, …); test: flow cytometry on HEK293T-hROR1 cells, MFI (Mean)
Procedure: as §2, §1

[22] = biological target: T2, cynomolgus ROR1 on CHO-K1-cynoROR1 cells; test: flow cytometry on CHOK1-cynoROR1 cells, MFI (Mean) [bottom panel, letter not given]
Procedure: as §2, §1

T1 sequence (Q01973 30-937): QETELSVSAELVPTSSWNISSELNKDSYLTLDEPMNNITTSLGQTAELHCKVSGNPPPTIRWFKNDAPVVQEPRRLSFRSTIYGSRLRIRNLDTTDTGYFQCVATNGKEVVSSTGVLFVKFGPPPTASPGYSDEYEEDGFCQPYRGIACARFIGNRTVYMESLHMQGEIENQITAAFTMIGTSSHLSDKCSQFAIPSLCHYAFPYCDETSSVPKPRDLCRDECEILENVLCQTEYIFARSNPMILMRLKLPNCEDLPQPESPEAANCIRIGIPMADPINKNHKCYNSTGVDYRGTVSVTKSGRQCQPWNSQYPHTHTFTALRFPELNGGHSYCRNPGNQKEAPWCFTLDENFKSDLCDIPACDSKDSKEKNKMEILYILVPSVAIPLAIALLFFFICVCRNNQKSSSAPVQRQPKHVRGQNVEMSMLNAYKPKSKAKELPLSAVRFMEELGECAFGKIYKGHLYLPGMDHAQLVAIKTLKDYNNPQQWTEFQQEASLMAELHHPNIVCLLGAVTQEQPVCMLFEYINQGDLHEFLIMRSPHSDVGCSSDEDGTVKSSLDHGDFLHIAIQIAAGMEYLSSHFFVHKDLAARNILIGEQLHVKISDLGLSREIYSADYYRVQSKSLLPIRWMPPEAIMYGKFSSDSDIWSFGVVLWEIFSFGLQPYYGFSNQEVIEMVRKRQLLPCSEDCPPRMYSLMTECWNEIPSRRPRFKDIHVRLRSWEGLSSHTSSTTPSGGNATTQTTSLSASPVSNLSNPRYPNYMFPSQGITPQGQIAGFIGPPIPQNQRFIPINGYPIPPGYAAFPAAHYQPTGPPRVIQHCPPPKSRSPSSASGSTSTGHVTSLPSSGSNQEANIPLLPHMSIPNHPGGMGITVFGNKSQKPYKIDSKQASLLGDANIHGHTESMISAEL
T4 sequence (Q01973 30-406): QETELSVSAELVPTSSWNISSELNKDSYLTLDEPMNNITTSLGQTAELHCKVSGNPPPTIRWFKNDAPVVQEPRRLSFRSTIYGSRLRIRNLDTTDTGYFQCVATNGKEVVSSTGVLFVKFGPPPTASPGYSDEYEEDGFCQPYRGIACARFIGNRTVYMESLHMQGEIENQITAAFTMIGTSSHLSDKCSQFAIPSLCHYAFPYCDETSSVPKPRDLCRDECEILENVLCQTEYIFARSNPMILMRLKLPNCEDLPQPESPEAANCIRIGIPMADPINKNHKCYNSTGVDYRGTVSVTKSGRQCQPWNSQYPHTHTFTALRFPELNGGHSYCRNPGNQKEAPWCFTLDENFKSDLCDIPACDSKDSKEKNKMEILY
T3 sequence (Q01974 34-403): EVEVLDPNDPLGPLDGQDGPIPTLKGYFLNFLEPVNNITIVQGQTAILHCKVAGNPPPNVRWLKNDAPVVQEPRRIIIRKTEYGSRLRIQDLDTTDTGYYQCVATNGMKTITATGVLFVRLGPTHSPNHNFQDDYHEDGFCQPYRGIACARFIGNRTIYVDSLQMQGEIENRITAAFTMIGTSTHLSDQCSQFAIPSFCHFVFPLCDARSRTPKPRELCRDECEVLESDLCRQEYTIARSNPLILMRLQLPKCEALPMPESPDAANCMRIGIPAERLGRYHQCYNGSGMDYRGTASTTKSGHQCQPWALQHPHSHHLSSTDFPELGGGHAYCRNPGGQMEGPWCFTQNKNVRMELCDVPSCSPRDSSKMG

Row | Binder | TOP [4] | binding result [5] | Kd [6] [nM] | koff [6] [s⁻¹] | kon [6] [M⁻¹ s⁻¹] | Inhibition (%) [7] [%] | Inhibition (%) [8] [%] | Inhibition (%) [9] [%] | Inhibition (%) [10] [%] | Inhibition (%) [11] [%] | also measured
1 | PR005351 (antibody, human IgG1, V domains shown, HCAb (heavy chain-only, human IgG1 Fc), no light chain) VH: QVQLVESGGGLVKPGGSLRLSCAASGFKLSDFQMSWIRQAPGKGLEWVAYIDTNGSTRYYAESVKGRFTLSRDNVKNSLNLQMNGLRAEDTALYYCARIPSYTSSWYEDFDHWGQGTLVTVSS | – | – | – | – | – | – | – | – | – | – | Max [1]: 10900; Max [2]: 27500; EC50 (read off the curve) [3]: ~20 nM
2 | PR007417 (antibody, V domains shown, bivalent form (HCAb) variant of PR005340, no light chain) VH: EVQLVESGGGLVKPGGSLRLSCAASGFTFSDFYMSWIRQAPGKGLEWISYISSSGSTRYYADSVKGRFTISRDNAKNSLYLQMNSLRAEDTAIYYCARDIPSSSSDWVDLQFDYWGQGTLVTVSS | 83800 | no binding (tested: 37.5-600 nM) | 0.18 | 4.86e-05 | 271000 | 10.2 | 114 | 116 | 113 | 111 | EC50 (read off the curve) [12]: ~0.8 nM
3 | PR007424 (antibody, V domains shown, bivalent form (HCAb) variant of PR005340, no light chain) VH: EVQLVESGGGLVKPGGSLRLSCAASGFTFSDYYMSWIRQAPGKGLEWISYIDSSGRPLAYADSVKGRFTISRDNAKNSLYLQMNSLRAEDTAIYYCARDMPSSSSDWVSLQFDYWGQGTLVTVSS | 70800 | no binding (tested: 37.5-600 nM) | 1.01 | 0.000284 | 281000 | -0.73 | 108 | 111 | 111 | 107 | EC50 (read off the curve) [13]: ~0.6 nM
4 | PR303201 (antibody, human IgG1, V domains shown, HCAb (heavy chain-only, human IgG1 Fc), no light chain) VH: EVQLLESGGGLVQPGGSLRLSCAASGFTFSGNAMSWVRQAPGKGLEWVSAISGSGDKTYYAASVKGRFTISRDNSNNTVYLQMNSLRAEDTAVYYCEKGAFRTTMDYWGQGTLVTVSS | – | – | – | – | – | – | – | – | – | – | EC50 [14]: 0.08 µg/mL; MAX(MFI) [14]: 1.23e+06 MFI; MAX(MFI) [1]: 935000 MFI; EC50 [15]: 0.004 µg/mL; EC50 [16]: 0.066 µg/mL; MAX(MFI) [16]: 1.55e+07 MFI; EC50 [17]: 0.057 µg/mL; MAX(MFI) [17]: 1.07e+07 MFI; Kd [18]: 4.89 nM; koff [18]: 0.00626 s⁻¹; kon [18]: 1.28e+06 M⁻¹ s⁻¹; EC50 (read off the curve) [19]: ~0.004 µg/mL; binding result [20]: no binding (tested: about 15 µg/ml); EC50 (read off the curve) [21]: ~0.06 µg/mL; EC50 (read off the curve) [22]: ~0.06 µg/mL
